Measurements as given in publication PMC12350152 (Nature Structural & Molecular Biology, 2025).

T1: Pfs48/45 fragment containing D3 (ELISA antigen) (Plasmodium falciparum, strain not …)
T1 chain: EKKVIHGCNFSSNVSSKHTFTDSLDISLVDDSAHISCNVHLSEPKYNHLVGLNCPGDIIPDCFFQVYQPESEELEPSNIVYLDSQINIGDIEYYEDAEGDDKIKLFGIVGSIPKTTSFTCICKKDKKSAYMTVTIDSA

B1: RUPA-44 mAb (IgG) (antibody, V domains shown)
VH: QLQLQESGPGLVKPSETLSLTCTVSGGSISRSPYYWGWIRQPPGKGLEWFGSIYNNGSTYYNPPLKSRLTISVDTSKNQFSLKLSSVTAADTAVYYCARHGGSTGMKVVVIAPPDYWGQGTLVTVSS
VL: DIQMTQSPATLSASVGDRVTITCRASQSISSWLAWYQQKPGEAPKLLIYKASSLQSGVPSRFSGSGSGTKFSLTISSLQPDDFATFYCQQYHSYPYTFGQGTKLEIK
B2: 10D8 Fab (Fab, V domains shown)
VH: EVMLVESGGDLVKPGGSLKVSCAASGFTFSNYAMSWVRQTPEKRLEWVATISSGASYTHYPDSVKGRFTISRDNAKNTLYLQMSSLRSEDTAMYYCGRQVNRHDRALDAMDYWGQGTSVTVSP
VL: not shown

Legend:
[1] = target: Pfs48/45 on live female Pf NF54 gametes (Plasmodium falciparum NF54 (3D7 is its …, UniProt Q8I6T1)); experiment: flow cytometry on cells
[2] = target: T1, Pfs48/45 fragment containing D3 (ELISA …); experiment: ELISA
[3] = target: recombinant full-length Pfs48/45 (ELISA antigen) (Plasmodium falciparum, strain not …, UniProt Q8I6T1); experiment: ELISA
[4] = target: Pfs48/45 D1D2 (domains 1 and 2, aa 27–294), native sequence (Plasmodium falciparum (isolate 3D7)., UniProt Q8I6T1); experiment: BLI
Pfs48/45 D1D2 (domains 1 and 2, aa 27–294), native sequence, sequence (Q8I6T1 27-294): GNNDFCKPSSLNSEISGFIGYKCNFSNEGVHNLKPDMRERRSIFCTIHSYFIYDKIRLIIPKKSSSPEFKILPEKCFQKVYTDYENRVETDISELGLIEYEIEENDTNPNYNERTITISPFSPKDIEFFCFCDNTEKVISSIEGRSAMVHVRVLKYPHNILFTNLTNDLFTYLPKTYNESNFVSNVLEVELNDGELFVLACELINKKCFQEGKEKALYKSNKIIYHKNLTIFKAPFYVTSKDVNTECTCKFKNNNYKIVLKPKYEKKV

Pfs48/45 on live female Pf NF54 gametes (Plasmodium falciparum NF54, sequence (Q8I6T1 28-426): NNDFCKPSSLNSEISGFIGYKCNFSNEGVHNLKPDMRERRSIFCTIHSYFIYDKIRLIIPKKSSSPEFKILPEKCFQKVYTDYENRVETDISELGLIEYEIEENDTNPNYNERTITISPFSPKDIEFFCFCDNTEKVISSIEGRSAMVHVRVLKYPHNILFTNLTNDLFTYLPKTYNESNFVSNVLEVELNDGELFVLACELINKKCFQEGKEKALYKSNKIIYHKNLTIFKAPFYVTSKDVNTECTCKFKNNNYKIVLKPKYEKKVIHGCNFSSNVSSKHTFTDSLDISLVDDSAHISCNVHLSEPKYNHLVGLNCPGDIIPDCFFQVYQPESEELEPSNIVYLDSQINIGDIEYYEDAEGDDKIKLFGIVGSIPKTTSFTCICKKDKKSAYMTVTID
recombinant full-length Pfs48/45 (ELISA antigen), sequence (Q8I6T1 28-426): as above

| Binder | binding result [1] | binding result [2] | binding result [3] | binding result [4] |
| --- | --- | --- | --- | --- |
| B1 | binds | binds | binds | – |
| B2 | – | – | – | binds |
